Assay results taken from the RNAGym collection of RNA variant scans (doi:10.1093/nar/gkz1192).

B1: CPEB3 Ribozyme (parent)
chain: UAACAGGGGGCCACAGCAGAAGCGUUCACGUCGCAGCCCCUGUCAGAUUCUGGUGAAUCUGCGAAUUCUGCUGUAUAUCUC

Variants of: B1
Test: self-cleavage, relative activity (ratio to wild type); higher = more cleavage; in vitro, sequencing
Summary of the method: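 CPEB3 self-cleaving ribozyme mutant libraries were made by rounds of error-prone PCR, barcoded, and transcribed in vitro with T7 RNA polymerase for 5 hours at 37°C. Cleavage occurred during transcription and a 15 min DNase I step before EDTA stop. RNAs were reverse transcribed with template switching and Illumina-sequenced, with DNA sequencing mapping barcodes to variants. Relative activity is the variant's cleaved/total read fraction divided by wild type's (minimum 5 reads), averaged across three batches.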

Variant | self-cleavage
UGAUAGGGGGCCACAGCAGAAGCGUUCACGUCGCAGCCCCUGUCAGAUUCUGGUGAAUCUGCGAAUUCUGCUGUAUAUCUC [A2G C4U] | 1.09
UGACAGGGGGCCACAGCAGAAGCGUUCGCGUCGCAGCCCCUGUCAGAUUCUGGUGAAUCUGCGAAUUCUGCUGUAUAUCUC [A2G A28G] | 0.4
UGACAGGGGGCCACAGCAGAAGCGUUCUCGUCGCAGCCCCUGUCAGAUUCUGGUGAAUCUGCGAAUUCUGCUGUAUAUCUC [A2G A28U] | 0.52
UGACAGGGGGCCACAGCAGAAGCGUUCCCGUCGCAGCCCCUGUCAGAUUCUGGUGAAUCUGCGAAUUCUGCUGUAUAUCUC [A2G A28C] | 0.38
UGACAGGGGGCCACAGCAGAAGCGUUCACGUCGCAGCCCCUGUCAGAUUCUGGUGGAUCUGCGAAUUCUGCUGUAUAUCUC [A2G A56G] | 0.5
UGACAGGGGGCCACAGCAGAAGCGUUCACGUCGCAGCCCCUGUCAGAUUCUGGUGUAUCUGCGAAUUCUGCUGUAUAUCUC [A2G A56U] | 0.31
UGACAGGGGGCCACGGCAGAAGCGUUCACGUCGCAGCCCCUGUCAGAUUCUGGUGAAUCUGCGAAUUCUGCUGUAUAUCUC [A2G A15G] | 0.53
UGACAGGGGGCCACUGCAGAAGCGUUCACGUCGCAGCCCCUGUCAGAUUCUGGUGAAUCUGCGAAUUCUGCUGUAUAUCUC [A2G A15U] | 0.41
UGACAGGGGGCCACAGCAGAAGCGUUCACGUCGCAGCCCCUGUCAGAUUCUGGUGAAUCUGCGAAUUCUGCUGUGUAUCUC [A2G A75G] | 0.54
UGACAGGGGGCCACAGCAGAAGCGUUCACGUCGCAGCCCCUGUCAGAUUCUGGUGAAUCUGCGAAUUCUGCUGUUUAUCUC [A2G A75U] | 0.84
UCACAGGAGGCCACAGCAGAAGCGUUCACGUCGCAGCCCCUGUCAGAUUCUGGUGAAUCUGCGAAUUCUGCUGUAUAUCUC [A2C G8A] | 0.1
UCACAGGGGGCCACAGCAGAAGCGUCCACGUCGCAGCCCCUGUCAGAUUCUGGUGAAUCUGCGAAUUCUGCUGUAUAUCUC [A2C U26C] | 0.55
UGACAGGGGGCCACAGCAGAAGCGUUCACGUCGCAGCCCCUGUCAGCUUCUGGUGAAUCUGCGAAUUCUGCUGUAUAUCUC [A2G A47C] | 0.29
UGACAGGGGGCCACAGCAGAAGCGUUCACGUCGCAGCCCCUGUCAGGUUCUGGUGAAUCUGCGAAUUCUGCUGUAUAUCUC [A2G A47G] | 0.48
UGACAGGGGGCCACAGCAGGAGCGUUCACGUCGCAGCCCCUGUCAGAUUCUGGUGAAUCUGCGAAUUCUGCUGUAUAUCUC [A2G A20G] | 0.61
UGACAGGGGGCCACAGCAGUAGCGUUCACGUCGCAGCCCCUGUCAGAUUCUGGUGAAUCUGCGAAUUCUGCUGUAUAUCUC [A2G A20U] | 0.39
UCACAGGGGGCCACAGCAGAAGCGUUCACGUCGCAGCCCCUGUCAGAUUCUAGUGAAUCUGCGAAUUCUGCUGUAUAUCUC [A2C G52A] | 1.02
UGGCAGGGGGCCACAGCAGAAGCGUUCACGUCGCAGCCCCUGUCAGAUUCUGGUGAAUCUGCGAAUUCUGCUGUAUAUCUC [A2G A3G] | 1.01
UGCCAGGGGGCCACAGCAGAAGCGUUCACGUCGCAGCCCCUGUCAGAUUCUGGUGAAUCUGCGAAUUCUGCUGUAUAUCUC [A2G A3C] | 0.89
UGACAGGGGGCCACAGCAGAAGCGUUCACGUCGCAGCCCCUGUCAGAUUCUGGUGAAUCUGCGGAUUCUGCUGUAUAUCUC [A2G A64G] | 0.55
UGACAGGGGGCCACAGCAGAAGCGUUCACGUCGCAGCCCCUGUCAGAUUCUGGUGAAUCUGCGUAUUCUGCUGUAUAUCUC [A2G A64U] | 0.33
UGACAGGGGGCGACAGCAGAAGCGUUCACGUCGCAGCCCCUGUCAGAUUCUGGUGAAUCUGCGAAUUCUGCUGUAUAUCUC [A2G C12G] | 0.38
UGACAGGGGGCUACAGCAGAAGCGUUCACGUCGCAGCCCCUGUCAGAUUCUGGUGAAUCUGCGAAUUCUGCUGUAUAUCUC [A2G C12U] | 1.04

Variant | self-cleavage
UGACAGGGGGCCACAGCUGAAGCGUUCACGUCGCAGCCCCUGUCAGAUUCUGGUGAAUCUGCGAAUUCUGCUGUAUAUCUC [A2G A18U] | 0.38
UGACAGGGGGCCACAGCGGAAGCGUUCACGUCGCAGCCCCUGUCAGAUUCUGGUGAAUCUGCGAAUUCUGCUGUAUAUCUC [A2G A18G] | 0.48
UGACAGGGGGCCACAGCCGAAGCGUUCACGUCGCAGCCCCUGUCAGAUUCUGGUGAAUCUGCGAAUUCUGCUGUAUAUCUC [A2G A18C] | 0.43
UGACAGGGGGCCACAGCAGAAGCGUUCACGUCGCAGCCCCUGUCAGAUUCUGGUGAAUCUGCGAAUUCUGCUGUAUCUCUC [A2G A77C] | 0.54
UGACAGGGGGCCACAGCAGAAGCGUUCACGUCGCAGCCCCUGUCAGAUUCUGGUGAAUCUGCGAAUUCUGCUGUAUUUCUC [A2G A77U] | 0.62
UGACAGGGGGCCACAGCAGAAGCGUUCACGUCGCAGCCCCUGUCAGAUUCUGGUGAAUCUGCGAAUUCUGCUGUAUGUCUC [A2G A77G] | 0.64
UCACAGGGUGCCACAGCAGAAGCGUUCACGUCGCAGCCCCUGUCAGAUUCUGGUGAAUCUGCGAAUUCUGCUGUAUAUCUC [A2C G9U] | 0.21
UGACAGGGGGCCGCAGCAGAAGCGUUCACGUCGCAGCCCCUGUCAGAUUCUGGUGAAUCUGCGAAUUCUGCUGUAUAUCUC [A2G A13G] | 0.59
UGACAGGGGGCCUCAGCAGAAGCGUUCACGUCGCAGCCCCUGUCAGAUUCUGGUGAAUCUGCGAAUUCUGCUGUAUAUCUC [A2G A13U] | 0.91
UCACAGGGGGCCACAGCAGAAGCGUUCACGUCGCAGCCCCUGUCAGACUCUGGUGAAUCUGCGAAUUCUGCUGUAUAUCUC [A2C U48C] | 0.71
UGACAGGGGGCCACAGCAGAGGCGUUCACGUCGCAGCCCCUGUCAGAUUCUGGUGAAUCUGCGAAUUCUGCUGUAUAUCUC [A2G A21G] | 0.42
UGACAGGGGGCCACAGCAGAUGCGUUCACGUCGCAGCCCCUGUCAGAUUCUGGUGAAUCUGCGAAUUCUGCUGUAUAUCUC [A2G A21U] | 0.35
UGACAGGGGGCCACAGCAGACGCGUUCACGUCGCAGCCCCUGUCAGAUUCUGGUGAAUCUGCGAAUUCUGCUGUAUAUCUC [A2G A21C] | 0.11
UGACAGGGGGCCACAGUAGAAGCGUUCACGUCGCAGCCCCUGUCAGAUUCUGGUGAAUCUGCGAAUUCUGCUGUAUAUCUC [A2G C17U] | 0.56
UCACAGGGGGCCACAGCAGAAGCGUUCACGUCGCAGCCCCUGUCAGAUUCUGGUGAAUCUGCGAAUCCUGCUGUAUAUCUC [A2C U67C] | 0.36
UCACAGGGGGCCACAGCAGAAGCGUUCACGCCGCAGCCCCUGUCAGAUUCUGGUGAAUCUGCGAAUUCUGCUGUAUAUCUC [A2C U31C] | 0.63
UCACAGGGGGCCACAGCAGAAGCGUUCACGUCGCAGCCCCUGUCAGAUUCUGGUGAAUCUGCGAAUUCUGCUGUACAUCUC [A2C U76C] | 1.02
UGACGGGGGGCCACAGCAGAAGCGUUCACGUCGCAGCCCCUGUCAGAUUCUGGUGAAUCUGCGAAUUCUGCUGUAUAUCUC [A2G A5G] | 0.73
UGACCGGGGGCCACAGCAGAAGCGUUCACGUCGCAGCCCCUGUCAGAUUCUGGUGAAUCUGCGAAUUCUGCUGUAUAUCUC [A2G A5C] | 0.94
UGACUGGGGGCCACAGCAGAAGCGUUCACGUCGCAGCCCCUGUCAGAUUCUGGUGAAUCUGCGAAUUCUGCUGUAUAUCUC [A2G A5U] | 0.8
UCACAGGGGGCCACAGCAGAAGCGUUCACGUCGCAACCCCUGUCAGAUUCUGGUGAAUCUGCGAAUUCUGCUGUAUAUCUC [A2C G36A] | 0.22
UGACAGGGGGCCACAGCAGAAGCGUUCACGUCGCAGCCCCUGUCAGAUUCUGGUGAAUCUGCGAAUUCUGCUGUAUAUCUC [A2G] | 0.7
UCACAGGGGGCCACAGCAGAAGCGUUCACGUCGCAGCCCCUGUCAGAUUCUGGUGAAACUGCGAAUUCUGCUGUAUAUCUC [A2C U58A] | 0.2

Variant | self-cleavage
UGACAGGGGGCCAUAGCAGAAGCGUUCACGUCGCAGCCCCUGUCAGAUUCUGGUGAAUCUGCGAAUUCUGCUGUAUAUCUC [A2G C14U] | 0.49
UGACAGGGGGUCACAGCAGAAGCGUUCACGUCGCAGCCCCUGUCAGAUUCUGGUGAAUCUGCGAAUUCUGCUGUAUAUCUC [A2G C11U] | 0.51
UGACAGGGGGGCACAGCAGAAGCGUUCACGUCGCAGCCCCUGUCAGAUUCUGGUGAAUCUGCGAAUUCUGCUGUAUAUCUC [A2G C11G] | 0.15
UGACAGGGGGCCACAGCAGAAGCGUUCACGUCGCAGCCCCUGUCCGAUUCUGGUGAAUCUGCGAAUUCUGCUGUAUAUCUC [A2G A45C] | 0.5
UGACAGGGGGCCACAGCAGAAGCGUUCACGUCGCAGCCCCUGUCGGAUUCUGGUGAAUCUGCGAAUUCUGCUGUAUAUCUC [A2G A45G] | 0.45
UGACAGGGGGCCACAGCAGAAGCGUUCACGUCGCAGCCCCUGUCUGAUUCUGGUGAAUCUGCGAAUUCUGCUGUAUAUCUC [A2G A45U] | 0.44
UCACAGGGGGCCACAGCAGAAGCGUUCACGUCGCAGCCCCUGUCAGAUUCUGGUGAAUCUACGAAUUCUGCUGUAUAUCUC [A2C G61A] | 0.48
UGACAGGGGGCCACAGCAGAAGCGUUAACGUCGCAGCCCCUGUCAGAUUCUGGUGAAUCUGCGAAUUCUGCUGUAUAUCUC [A2G C27A] | 0.36
UCACAGGGGGCCACAGCAGAAGCGUUCACGUCGCAGCCCCUGUCAGAUCCUGGUGAAUCUGCGAAUUCUGCUGUAUAUCUC [A2C U49C] | 0.42
UCACAGGGGGCCACAGCAGAAGCGUUCACGUCGCAGCCCCUGUCAGAUUCGGGUGAAUCUGCGAAUUCUGCUGUAUAUCUC [A2C U51G] | 0.92
UCACAGGGGGCCACAGCAGAAGCGUUCACGUCGCAGCCCCUGUCAGAUUCAGGUGAAUCUGCGAAUUCUGCUGUAUAUCUC [A2C U51A] | 0.7
UCACAGGGGGCCACAGCAGAAGCGUUCACGUCGCAGCCCCUGUCAGAUUCUGGUGAAUCUGCGAACUCUGCUGUAUAUCUC [A2C U66C] | 0.4
UCACAGGGGGCCACAGCAGAAGCGUUCACGUCGCAGCCCCUGUCAGAUUCUGGUGAAUCUGCGAAUUCUGCAGUAUAUCUC [A2C U72A] | 0.72
UCACAGGGGGCCACAGCAGAAGCGUUCACGUCGCAGCCCCUGUCAGAUUCUGGUGAAUCUGCGAAUUCUGCCGUAUAUCUC [A2C U72C] | 0.9
UGACAGGGGGCCACAGCAGAAGCGUUCACGUCGCAGCCCCUGUCAGAUUCUGGUGAAUCUGCGAGUUCUGCUGUAUAUCUC [A2G A65G] | 0.29
UGACAGGGGGCCACAGCAGAAGCGUUCACGUCGCAGCCCCUGUCAGAUUCUGGUGAAUCUGCGAUUUCUGCUGUAUAUCUC [A2G A65U] | 0.38
UCACAGGGGGCCACAGCAGAAGCGCUCACGUCGCAGCCCCUGUCAGAUUCUGGUGAAUCUGCGAAUUCUGCUGUAUAUCUC [A2C U25C] | 0.49
UGACAGGGGGCCACAGCAGAAGCGUUCACGUCGCUGCCCCUGUCAGAUUCUGGUGAAUCUGCGAAUUCUGCUGUAUAUCUC [A2G A35U] | 0.37
UGACAGGGGGCCACAGCAGAAGCGUUCACGUCGCGGCCCCUGUCAGAUUCUGGUGAAUCUGCGAAUUCUGCUGUAUAUCUC [A2G A35G] | 1.21
UCACAGGGGGCCACAGCAGAAGCGUUCACGUCGCAGCCCCUGUCAGAUUCUGGUGAAUCUGCGAAUUCUGCUGUAUAUCAC [A2C U80A] | 1.2
UGACAGGGGGCCACAGCAGAAGCGUUCACGUCGCAGCCCCUGUCAGAUUCUGGUGAGUCUGCGAAUUCUGCUGUAUAUCUC [A2G A57G] | 0.5
UGACAGGGGGCCACAGCAGAAGCGUUCACGUCGCAGCCCCUGUCAGAUUCUGGUGAUUCUGCGAAUUCUGCUGUAUAUCUC [A2G A57U] | 0.28
